Data from publication PMC7954794, “Protein context shapes the specificity of SH3 domain-mediated interactions in vivo” (Nature Communications, 2021).

Test system: Abp1 PPIs
Assay: DHFR-PCA of Abp1 SH3-swapped baits (Fig. 2B-D, S2C, S2F);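 as to Protein-protein interaction distance between Abp1 SH3-swapped baits, to ABP1: Euclidean distance between DHFR-PCA score profiles of the baits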;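 as to Protein-protein interaction distance between Abp1 SH3-swapped baits, to BEM1-2: Euclidean distance between DHFR-PCA score profiles of the baits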;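 as to Protein-protein interaction distance between Abp1 SH3-swapped baits, to BOI1: Euclidean distance between DHFR-PCA score profiles of the baits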;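 as to Protein-protein interaction distance between Abp1 SH3-swapped baits, to BZZ1-1: Euclidean distance between DHFR-PCA score profiles of the baits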
Type: cell-based, Saccharomyces cerevisiae
Conditions: sheet Fig2C
How it was run: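 Interactions were scored by DHFR protein-fragment complementation. DHFR F[1,2]-tagged Abp1 strains, whose SH3 was swapped for yeast or human ortholog domains, were crossed on YPD at 30 °C for 48 h with a 1536-format array of 575 prey-DHFR F[3] strains and 40 negatives, giving four replicates per pair. PCA selection lasted 4 days after double diploid selection.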

B1: YSC84 (protein, UniProt P32793 1-468, looked up)
Protein YSC84: MGINNPIPRSLKSETKKAAKVLRSFVKPNQVFGADQVIPPYVLKRAKGLAIITVLKAGFLFSGRAGSGVIVARLKDGTWSAPSAIAMAGAGAGGMVGVELTDFVFILNSEEAVRSFSEFGTITLGGNVSVSAGPLGRSAEAAASASTGGVSAVFAYSKSKGLFAGVSVEGSAILERREANRKFYGDNCTSKMILSGRVKVPPAADPLLRILESRAFNFTRHDHDDNASGDDFYDDGQYSDNTSHYYDDIPDSFDSTDESSTRPNTRSSRRRGMSLGSRSRYDDDYDDDGYGRGRGYGDFDSEDEDYDYGRSPNRNSSRNRGPQIDRGTKPRANTRWEDDLYDRDTEYSRPNHSGRDYDNTRGNRRGYGRERGYSLGHGPTHPSNMSNVDDLSHKMSKTGLGNESTATNSATPTAVALYNFAGEQPGDLAFKKGDVITILKKSDSQNDWWTGRTNGKEGIFPANYVRVS
Abp1 bait with swapped SH3, distance to bait with ABP1 SH3
  Protein-protein interaction distance between Abp1 SH3-swapped baits, to ABP1: 13.97
Distance to Abp1 bait with BBC1 SH3
  Protein-protein interaction distance between Abp1 SH3-swapped baits, to BBC1: 14.14
Distance to Abp1 bait with BEM1-1 SH3
  Protein-protein interaction distance between Abp1 SH3-swapped baits, to BEM1-1: 19.6
Distance to Abp1 bait with BEM1-2 SH3
  Protein-protein interaction distance between Abp1 SH3-swapped baits, to BEM1-2: 36.26
Distance to Abp1 bait with BOI1 SH3
  Protein-protein interaction distance between Abp1 SH3-swapped baits, to BOI1: 16.61
Distance to Abp1 bait with BOI2 SH3
  Protein-protein interaction distance between Abp1 SH3-swapped baits, to BOI2: 20.04
Distance to Abp1 bait with BUD14 SH3
  Protein-protein interaction distance between Abp1 SH3-swapped baits, to BUD14: 22.52
Distance to Abp1 bait with BZZ1-1 SH3
  Protein-protein interaction distance between Abp1 SH3-swapped baits, to BZZ1-1: 11.3
Distance to Abp1 bait with BZZ1-2 SH3
  Protein-protein interaction distance between Abp1 SH3-swapped baits, to BZZ1-2: 16.58
Distance to Abp1 bait with CDC25 SH3
  Protein-protein interaction distance between Abp1 SH3-swapped baits, to CDC25: 30.76
Distance to Abp1 bait with CTTN SH3
  Protein-protein interaction distance between Abp1 SH3-swapped baits, to CTTN: 17.19
Distance to Abp1 bait with CYK3 SH3
  Protein-protein interaction distance between Abp1 SH3-swapped baits, to CYK3: 31.42
Distance to Abp1 bait with DBNL SH3
  Protein-protein interaction distance between Abp1 SH3-swapped baits, to DBNL: 11.44
Distance to Abp1 bait with FUS1 SH3
  Protein-protein interaction distance between Abp1 SH3-swapped baits, to FUS1: 23.88
Distance to Abp1 bait with HCLS1 SH3
  Protein-protein interaction distance between Abp1 SH3-swapped baits, to HCLS1: 11.3
Distance to Abp1 bait with HOF1 SH3
  Protein-protein interaction distance between Abp1 SH3-swapped baits, to HOF1: 34.92
Distance to Abp1 bait with HSE1 SH3
  Protein-protein interaction distance between Abp1 SH3-swapped baits, to HSE1: 12.83
Distance to Abp1 bait with LSB1 SH3
  Protein-protein interaction distance between Abp1 SH3-swapped baits, to LSB1: 3.911
Distance to Abp1 bait with LSB3 SH3
  Protein-protein interaction distance between Abp1 SH3-swapped baits, to LSB3: 3.425
Distance to Abp1 bait with MYO3 SH3
  Protein-protein interaction distance between Abp1 SH3-swapped baits, to MYO3: 9.995
Distance to Abp1 bait with MYO5 SH3
  Protein-protein interaction distance between Abp1 SH3-swapped baits, to MYO5: 8.128
Distance to Abp1 bait with NBP2 SH3
  Protein-protein interaction distance between Abp1 SH3-swapped baits, to NBP2: 21.76
Distance to Abp1 bait with PEX13 SH3
  Protein-protein interaction distance between Abp1 SH3-swapped baits, to PEX13: 7.848
Distance to Abp1 bait with PIN3 SH3
  Protein-protein interaction distance between Abp1 SH3-swapped baits, to PIN3: 5.862
Distance to Abp1 bait with RVS167 SH3
  Protein-protein interaction distance between Abp1 SH3-swapped baits, to RVS167: 8.283
Distance to Abp1 bait with SDC25 SH3
  Protein-protein interaction distance between Abp1 SH3-swapped baits, to SDC25: 36.86
Distance to Abp1 bait with SHO1 SH3
  Protein-protein interaction distance between Abp1 SH3-swapped baits, to SHO1: 12.33
Distance to Abp1 bait with SLA1-1 SH3
  Protein-protein interaction distance between Abp1 SH3-swapped baits, to SLA1-1: 33.18
Distance to Abp1 bait with SLA1-2 SH3
  Protein-protein interaction distance between Abp1 SH3-swapped baits, to SLA1-2: 24.17
Distance to Abp1 bait with SLA1-3 SH3
  Protein-protein interaction distance between Abp1 SH3-swapped baits, to SLA1-3: 6.014
Distance to Abp1 bait with YSC84 SH3
  Protein-protein interaction distance between Abp1 SH3-swapped baits, to YSC84: 0.00
